Results on 64 substances are retold here after patent US20220362368A1.

For test [1], the target named is SpAKKAA (Staphylococcus aureus). In words: ELISA, OD 450 against log10(1/dilution of 3F6), initial 0.05 mg/mL. On the technique in general: An ELISA detects its analyte on a solid surface through an enzyme-linked reagent.
The target in test [2] is SpAQ9,10K/G29F/D36,37A (Staphylococcus aureus) (UniProt P02976). The description is as above.
In test [3] the target is F(ab)2 fragment of human IgG. The test is described as follows: SPR, test article on chip, F(ab)2 fragment of human IgG in flow. Background: SPR reads the build-up and loss of mass on a sensor chip optically.
Test [4] concerns the target human IgG. The test is described as follows: method and unit not given (binding affinity of the variants to human IgG).
In test [5] the target is Fcγ fragment of human IgG (human). In words: BLI, test article on Ni-NTA sensor, Fc fragment of human IgG in solution. Background: BLI is a label-free optical method that tracks binding on a fibre tip over time.
Test [6] addresses human IgG. The test is described as follows: SPR, test article on chip, human IgG in flow.
The target of a further test is human IgE. In words: method and unit not told (binding affinity of the variants to human IgE).
In test [7] the target is SpAQ9,10K/S33T (Staphylococcus aureus).
For test [8], the target named is SpAQ9,10K/S33E (Staphylococcus aureus).
In test [9] the target is SpAKKAA (Staphylococcus aureus). In words: ELISA, plates coated with SpAKKAA, serial dilution of hMAb 3F6.
The target is the same in test [10]. The test is described as follows: ELISA, association constant calculated with GraphPad Prism; head of the table: KA (x 10^10) M^-1.
The target of test [11] is SpAQ9,10K/S33T (Staphylococcus aureus). The description is as above.
The target in test [12] is SpAQ9,10K/S33E (Staphylococcus aureus). The test is described as above.
The target in test [13] is SpAKKAA (Staphylococcus aureus). The test is described as follows: ELISA, plate coated with antigen, serial dilutions of rMAb 3F6.
For test [14], the target named is SpAQ9,10K/S33T (Staphylococcus aureus). The description is as above.
Test [15] deals with SpAQ9,10K/S33E (Staphylococcus aureus). Described as above.
Test [16] has as its target SpAQ9,10K/S33T (Staphylococcus aureus). The source holds these as a separate data set.
Test [17] has as its target SpAQ9,10K/S33E (Staphylococcus aureus). This is another data set of the same source.
The target of test [18] is SpAKKAA (Staphylococcus aureus). In words: ELISA, plates coated with SpAKKAA, serial dilution of rMAb 3F6.

One may read the EC50 (read off the curve) as the concentration giving half of the maximal effect. Low readings indicate higher potency in that assay, high ones lower potency in that assay.

Like-named read-outs stand apart in the source and are kept apart here.

Consider 3F6 (antibody), for which the EC50 (read off the curve) in [1] and in [2] was 6 ng/mL in each case.
Consider “SpAKKAA (from UniProt A0A0H3K686 37-327)”, for which the figures for the Ka (in test [3]; in [5]; with human IgG [6]) were 82700 M⁻¹, 32.9 M⁻¹ and 502000 M⁻¹, respectively. The substance further came in with a human IgG affinity in the test with human IgG [4] of 6.6e-05. Moreover, the human IgE affinity in the test with human IgE was 6.57e-08.
In the test with human IgG [6], “SpAQ9,10K/G29A (from UniProt A0A0H3K686 37-327)” returned a Ka of 1.13e+06 M⁻¹.
As to “SpAQ9,10K/G29A/D36,37A (from UniProt A0A0H3K686 37-327)”, the human IgG affinity with human IgG [4] came to 0.000143. Further, in the test with human IgG [6], the Ka turned out to be 178000 M⁻¹. In the test with human IgE, this substance gave a human IgE affinity of 3.43e-06.
Take “SpAQ9,10K/G29C (from UniProt A0A0H3K686 37-327)”: the Ka with human IgG [6] was 174000 M⁻¹.
Substance “SpAQ9,10K/G29D (from UniProt A0A0H3K686 37-327)” gave a Ka with human IgG [6] of 548000 M⁻¹.
On the same count and under the same terms, next, “SpAQ9,10K/G29E (from UniProt A0A0H3K686 37-327)”: 318000 M⁻¹; “SpAQ9,10K/G29F (from UniProt A0A0H3K686 37-327)”: 346000 M⁻¹.
On to “SpAQ9,10K/G29F/D36,37A (from UniProt P02976 37-327)”, for which the human IgG affinity with human IgG [4] was found to be 0.0124. In the test with human IgG [6], the Ka worked out at 372000 M⁻¹. This substance yielded a human IgE affinity with human IgE of 2.02e-05.
For “SpAQ9,10K/G29H (from UniProt A0A0H3K686 37-327)”, the Ka in the test with human IgG [6] amounted to 144000 M⁻¹.
Regarding “SpAQ9,10K/G29I (from UniProt A0A0H3K686 37-327)”, the Ka in the test with human IgG [6] was 1.01e+06 M⁻¹.
Substance “SpAQ9,10K/G29K (from UniProt A0A0H3K686 37-327)” came in with a Ka with human IgG [6] of 974000 M⁻¹.
The same measure, in the same setting: next, “SpAQ9,10K/G29L (from UniProt A0A0H3K686 37-327)”: 315000 M⁻¹.
For the substance “SpAQ9,10K/G29M (from UniProt A0A0H3K686 37-327)”, the Ka in the test with human IgG [6] was 389000 M⁻¹.
Still for that read-out and setting: next, “SpAQ9,10K/G29N (from UniProt A0A0H3K686 37-327)”: 623000 M⁻¹; “SpAQ9,10K/G29P (from UniProt A0A0H3K686 37-327)”: 340000 M⁻¹.
Still for that read-out and setting: next, “SpAQ9,10K/G29Q (from UniProt A0A0H3K686 37-327)”: 206000 M⁻¹.
On the same count and under the same terms, next, “SpAQ9,10K/G29R (from UniProt A0A0H3K686 37-327)”: 606000 M⁻¹; “SpAQ9,10K/G29R/D36,37A (from UniProt A0A0H3K686 37-327)”: 681000 M⁻¹; “SpAQ9,10K/G29S (from UniProt A0A0H3K686 37-327)”: 940000 M⁻¹.
“SpAQ9,10K/G29T (from UniProt A0A0H3K686 37-327)”: the Ka with human IgG [6] turned out to be 198000 M⁻¹.
The same measure, in the same setting: next, “SpAQ9,10K/G29V (from UniProt A0A0H3K686 37-327)”: 435000 M⁻¹.
The substance “SpAQ9,10K/G29W (from UniProt A0A0H3K686 37-327)” registered a Ka with human IgG [6] of 451000 M⁻¹.
In turn, “SpAQ9,10K/G29Y (from UniProt A0A0H3K686 37-327)” yielded a Ka with human IgG [6] of 837000 M⁻¹.
The same measure, in the same setting: next, “SpAQ9,10K/S33A/D36,37A (from UniProt A0A0H3K686 37-327)”: 1.88e+06 M⁻¹.
The same measure, in the same setting: next, “SpAQ9,10K/S33C (from UniProt P02976 37-327)”: 458000 M⁻¹; “SpAQ9,10K/S33D (from UniProt P02976 37-327)”: 382000 M⁻¹.
“SpAQ9,10K/S33E (from UniProt A0A0H3K686 37-327)”: the Ka in test [3] worked out at 41.2 M⁻¹; in [5], 32.7 M⁻¹; with human IgG [6] it was 49600 M⁻¹.
“SpAQ9,10K/S33E/D36,37A (from UniProt P02976 37-327)” gave a Ka with human IgG [6] of 56800 M⁻¹.
“SpAQ9,10K/S33E/D36,37A/G29A (from UniProt P02976 37-327)” showed a Ka with human IgG [6] of 189000 M⁻¹.
On the same count and under the same terms, next, “SpAQ9,10K/S33E/D36,37A/G29F (from UniProt P02976 37-327)”: 1.48e+06 M⁻¹; “SpAQ9,10K/S33E/D36,37A/G29R (from UniProt P02976 37-327)”: 1.02e+06 M⁻¹.
“SpAQ9,10K/S33E/G29A (from UniProt P02976 37-327)” returned a Ka with human IgG [6] of 126000 M⁻¹.
The same measure, in the same setting: next, “SpAQ9,10K/S33E/G29F (from UniProt P02976 37-327)”: 158000 M⁻¹; “SpAQ9,10K/S33E/G29R (from UniProt P02976 37-327)”: 484000 M⁻¹.
“SpAQ9,10K/S33F/D36,37A (from UniProt A0A0H3K686 37-327)” showed a Ka with human IgG [6] of 363000 M⁻¹.
The same measure, in the same setting: next, SpAQ9,10K/S33F/D36,37A/G29R: 906000 M⁻¹; “SpAQ9,10K/S33F/G29A (from UniProt A0A0H3K686 37-327)”: 119000 M⁻¹.
Still for that read-out and setting: next, “SpAQ9,10K/S33F/G29F (from UniProt A0A0H3K686 37-327)”: 244000 M⁻¹; “SpAQ9,10K/S33F/G29R (from UniProt A0A0H3K686 37-327)”: 190000 M⁻¹.
As to “SpAQ9,10K/S33G (from UniProt P02976 37-327)”, the Ka with human IgG [6] was determined as 1.12e+06 M⁻¹.
Still for that read-out and setting: next, “SpAQ9,10K/S33H (from UniProt A0A0H3K686 37-327)”: 278000 M⁻¹.
Still for that read-out and setting: next, “SpAQ9,10K/S33I (from UniProt A0A0H3K686 37-327)”: 184000 M⁻¹; “SpAQ9,10K/S33K (from UniProt P02976 37-327)”: 512000 M⁻¹.
Same read-out and setting: next, “SpAQ9,10K/S33K/D36,37A (from UniProt A0A0H3K686 37-327)”: 805000 M⁻¹.
Consider “SpAQ9,10K/S33L (from UniProt A0A0H3K686 37-327)”, for which, in the test with human IgG [6], the Ka came out at 205000 M⁻¹.
“SpAQ9,10K/S33M (from UniProt A0A0H3K686 37-327)” showed a Ka with human IgG [6] of 318000 M⁻¹.
Still for that read-out and setting: next, “SpAQ9,10K/S33N (from UniProt A0A0H3K686 37-327)”: 307000 M⁻¹; “SpAQ9,10K/S33P (from UniProt P02976 37-327)”: 422000 M⁻¹.
As to “SpAQ9,10K/S33Q/D36,37A (from UniProt P02976 37-327)”, in the test with human IgG [6], the Ka worked out at 393000 M⁻¹.
Still for that read-out and setting: next, SpAQ9,10K/S33Q/D36,37A/G29A: 489000 M⁻¹.
Still for that read-out and setting: next, SpAQ9,10K/S33Q/D36,37A/G29F: 1.25e+06 M⁻¹.
The same measure, in the same setting: next, SpAQ9,10K/S33Q/D36,37A/G29R: 638000 M⁻¹.
Consider “SpAQ9,10K/S33Q/G29A (from UniProt A0A0H3K686 37-327)”, for which the Ka in the test with human IgG [6] amounted to 256000 M⁻¹.
For “SpAQ9,10K/S33Q/G29F (from UniProt A0A0H3K686 37-327)”, the Ka with human IgG [6] turned out to be 128000 M⁻¹.
Still for that read-out and setting: next, “SpAQ9,10K/S33Q/G29R (from UniProt A0A0H3K686 37-327)”: 233000 M⁻¹; “SpAQ9,10K/S33R (from UniProt A0A0H3K686 37-327)”: 346000 M⁻¹.
As for “SpAQ9,10K/S33T (from UniProt A0A0H3K686 37-327)”, the figures for the Ka (in test [3]; in test [5]; with human IgG [6]) were 43.5 M⁻¹, 39.9 M⁻¹ and 38600 M⁻¹, respectively.
For “SpAQ9,10K/S33V (from UniProt A0A0H3K686 37-327)”, the Ka in the test with human IgG [6] stood at 247000 M⁻¹.
The same measure, in the same setting: next, “SpAQ9,10K/S33W (from UniProt A0A0H3K686 37-327)”: 236000 M⁻¹; “SpAQ9,10K/S33Y (from UniProt A0A0H3K686 37-327)”: 157000 M⁻¹.
As to hMAb 3F6 (antibody), the results for the EC50 (read off the curve) in test [7], in test [8] and in test [9] were 0.3 nM, 0.3 nM and 0.4 nM, respectively. Besides, the Ka in [10] is 4.99e+10 M⁻¹; in test [11], 7.96e+10 M⁻¹; in [12], 9.82e+10 M⁻¹.
As for “recombinant monoclonal antibody rMAb 3F6”, the Ka in test [13] was 1.51e+10 M⁻¹; in test [14], 1.34e+10 M⁻¹; in [15] it was 1.42e+10 M⁻¹. For the same substance, the concentration for a half-maximal effect (EC50 (read off the curve)) in test [16], in test [17] and in test [18] was 0.07 nM in each case.
For “wild-type SpA (five immunoglobulin-binding domains of staphylococcal protein A) (from UniProt P02976 37-327)”, the Ka in [5] stood at 5.17e+07 M⁻¹.
